Source: patent publication US20180057596A1 (AstraZeneca / MedImmune, published 2018)
Several values for one entry are separate records, joined by “and”; a condition that tells them apart may be missing. Equal entries are not always repeated. Where two headings read alike, the source gives them in different places.

T1: cynomolgus IL-4Rα HIS FLAG (cynomolgus)
T1 construct: also called Cyno IL4Rα HIS FLAG; not shown: HIS and FLAG tags and any vector-encoded linker of the cynomolgus HIS FLAG construct
T1 chain: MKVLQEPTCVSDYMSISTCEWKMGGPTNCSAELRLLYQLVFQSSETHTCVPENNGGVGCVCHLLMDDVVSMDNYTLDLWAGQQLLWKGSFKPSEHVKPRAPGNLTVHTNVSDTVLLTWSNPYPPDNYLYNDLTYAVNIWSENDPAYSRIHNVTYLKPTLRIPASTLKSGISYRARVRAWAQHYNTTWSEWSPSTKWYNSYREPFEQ

T2: murine IL4Rα Fc (R & D Systems 530-MR-100) (murine, UniProt P16382 26-233, limits assumed)
T2 construct: bought protein; not shown: Fc part of the bought fusion
T2 sequence (looked up): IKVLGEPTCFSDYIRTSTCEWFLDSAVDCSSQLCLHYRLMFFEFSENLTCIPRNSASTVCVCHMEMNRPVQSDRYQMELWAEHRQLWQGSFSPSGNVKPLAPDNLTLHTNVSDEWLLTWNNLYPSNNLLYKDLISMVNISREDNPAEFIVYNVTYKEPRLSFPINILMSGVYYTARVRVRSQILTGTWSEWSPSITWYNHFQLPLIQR

T3: Human common gamma chain (sIL-2Rγ) (R & D Systems 384-RG-050-CF) (human, UniProt P31785 23-254)
T3 construct: bought protein; also called common gamma chain (IL-2Rγ)
T3 sequence (looked up): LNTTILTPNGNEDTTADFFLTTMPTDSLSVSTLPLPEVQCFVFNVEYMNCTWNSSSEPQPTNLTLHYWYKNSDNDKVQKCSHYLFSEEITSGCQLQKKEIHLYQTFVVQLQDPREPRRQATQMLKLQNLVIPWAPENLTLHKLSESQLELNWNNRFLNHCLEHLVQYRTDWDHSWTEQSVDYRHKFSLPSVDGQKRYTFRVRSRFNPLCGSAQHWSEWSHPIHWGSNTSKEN

T4: human IL-13Rα1 Fc (R & D Systems, 146-IR-100) (human, UniProt P78552 27-343, limits assumed)
T4 construct: bought protein; not shown: Fc part of the bought fusion
T4 sequence (looked up): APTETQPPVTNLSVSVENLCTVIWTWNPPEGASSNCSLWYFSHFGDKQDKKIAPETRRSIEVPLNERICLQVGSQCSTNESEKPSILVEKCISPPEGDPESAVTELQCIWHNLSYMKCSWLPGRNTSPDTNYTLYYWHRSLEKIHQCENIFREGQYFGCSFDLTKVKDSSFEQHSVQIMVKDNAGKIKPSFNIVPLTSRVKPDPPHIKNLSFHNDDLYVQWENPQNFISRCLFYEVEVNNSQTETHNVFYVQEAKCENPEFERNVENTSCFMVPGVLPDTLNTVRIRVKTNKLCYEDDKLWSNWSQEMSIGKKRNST

T5: human IL-13Rα2 Fc (R & D Systems, 614-IR-100) (human, UniProt Q14627 27-343, limits assumed)
T5 construct: bought protein; not shown: Fc part of the bought fusion
T5 sequence (looked up): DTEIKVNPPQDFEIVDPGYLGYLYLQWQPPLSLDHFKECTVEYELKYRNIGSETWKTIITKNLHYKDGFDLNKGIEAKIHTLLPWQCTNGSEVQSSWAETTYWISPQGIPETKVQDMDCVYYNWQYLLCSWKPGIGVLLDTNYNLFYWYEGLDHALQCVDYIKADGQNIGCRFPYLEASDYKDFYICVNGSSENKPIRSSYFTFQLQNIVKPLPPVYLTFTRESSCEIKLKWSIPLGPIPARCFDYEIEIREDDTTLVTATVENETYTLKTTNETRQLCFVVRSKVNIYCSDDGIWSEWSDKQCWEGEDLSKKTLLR

B1: human IL-4Rα HIS FLAG (in house HEK-EBNA derived) (receptor)
chain: MKVLQEPTCVSDYMSISTCEWKMNGPTNCSTELRLLYQLVFLLSEAHTCIPENNGGAGCVCHLLMDDVVSADNYTLDLWAGQQLLWKGSFKPSEHVKPRAPGNLTVHTNVSDTLLLTWSNPYPPDNYLYNHLTYAVNIWSENDPADFRIYNVTYLEPSLRIAASTLKSGISYRARVRAWAQCYNTTWSEWSPSTKWHNSYREPFNPAFLYKVVGAADYKDDDDKAAHHHHHHHHHH
modifications: biotinylated where used as the labelled partner in the DELFIA assay
notes: also called HuIL-4Rα; Human IL4-Rα/FLAG/HIS tag

Assays:
[1] = target: T6, antibody tested in the epitope mapping of Example 5; test: HTRF competition, test protein against biotinylated human IL-4Rα/Fc for cryptate labelled antibody
T6 construct: also called an antibody of the invention
Protocol: (§1) Antibody was cryptate labelled with Eu³⁺ Cryptate labelling kit according to the manufacturer's instructions (CisBio International Cat No. 62EUSPEA) and IL-4R•/Fc (R&D systems Cat. No. 604-4R-050) was Biotin labelled with EZ Link NHS-Biotin according to the manufacturer's instructions (Perbio Cat No. 20217). […] 1% BSA, 0. 4M potassium fluoride in a total volume of 20 μl in a 384 well microtitre plate (Greiner). To the assay a dilution series (from 1000 nM to 0.017 nM) of test proteins was added and the assay incubated overnight at 4° C. FRET signal was detected using a PerkinElmer EnVision plate reader using a 320 nm excitation filter and 620 nm and 665 nm emission filters. Results were calculated from the 665/620 ratio as a percentage of specific binding (signal with no competitor antigen). Results were analysed with Prism (GraphPad Software) using the sigmoidal dose response model.
Antibody binding of chimeric molecules was tested in an HTRF (Homogeneous Time Resolved Fluorescence) competition assay. Molecules which bound antibody at the same paratope as human IL-4R• inhibited the binding interaction, leading to a reduction in signal. From inhibition curves IC₅₀ values for human IL-4R•, mouse IL-4R• and chimeric molecules were calculated (Table 5). […] Chimeras that gave similar IC₅₀ values to native human IL-4R• still contained the epitope.

[2] = target: T6, antibody tested in the epitope mapping …; test: as above; remark: listed apart in the source
Protocol: as §1

[3] = target: T6, antibody tested in the epitope mapping …; test: as above; remark: listed apart in the source
Protocol: as §1

[4] = target: B1; test: SPR (BIAcore 2000), IgG captured on Protein G', receptor as analyte, 1:1 Langmuir
Protocol: (§2) In brief, Protein G′ (Sigma Aldrich, P4689) was covalently coupled to the surface of a CM5 sensor chip using standard amine coupling reagents according to manufacturer's instructions (BIAcore). This Protein G′ surface was used to capture a constant amount of purified anti-IL4R• antibodies or isotype control via the Fc domain. Human or cynomolgus IL-4R• HIS FLAG prepared in HBS-EP buffer (BIAcore AB), at a range of concentrations, between 100 nM and 0.2 nM, were passed over the sensor chip surface. […] The resulting sensorgrams were evaluated using BIA evaluation 4.1 software and fitted to 1:1 Langmuir binding model, to provide the relative binding data. The experiments were performed over the course of at least three separate days to calculate an average monovalent affinity.

[5] = target: T1, cynomolgus IL-4Rα HIS FLAG; test: as above
Protocol: as §2

[6] = target: B1; test: SPR (BIAcore 2000), value in parentheses under the mean, taken as a single determination
Protocol: as §2

[7] = target: T1, cynomolgus IL-4Rα HIS FLAG; test: as above
Protocol: as §2

[8] = target: T2, murine IL4Rα Fc (R & D Systems …); test: DELFIA epitope competition, no inhibition of biotinylated human IL-4Rα HIS FLAG binding to immobilised IgG
Protocol: (§3) Titrations of IL-4R• species including cynomolgus IL-4R• HIS Fc (in house HEK-EBNA derived), human IL-4R• 175V Fc (AstraZeneca), human IL-4R• Fc and murine IL-4R• (both R & D Systems) were tested in each assay to establish the species cross-reactivity of the antibodies. Unbiotinylated human IL-4R• HIS FLAG was used as a positive control. Human and cynomolgus IL-4R• HIS Fc, along with Human IL-4R• 175V Fc, produced overlapping inhibition curves with […] IC₅₀ values. […] Details of the protocol are provided in the Materials and Methods section 4.6.1.
(§4) Purified IgG were adsorbed onto 96-well Maxisorp microtitre plates (Nunc) in PBS at a concentration which gave a significant signal when biotinylated human IL-4R• HIS FLAG was added at approximately its estimated KD for that particular IgG. Excess IgG was washed away with PBS-Tween (0. 1% v/v) and the wells were blocked with PBS-Marvel (3% w/v) for 1 h. […] Unbiotinylated human IL-4R• HIS FLAG was used as a positive control. […] These mixtures were then transferred onto the blocked IgG and allowed to equilibrate for 1.5 h. Unbound antigen was removed by washing with PBS-Tween (0.1% v/v), while the remaining biotinylated human IL-4R• was detected by streptavidin-Europium3+ conjugate (DELFIA• detection, PerkinElmer).

[9] = target: T3, Human common gamma chain (sIL-2Rγ) (R & …); test: as above
Protocol: as §3, §4

[10] = target: T4, human IL-13Rα1 Fc (R & D Systems, …); test: as above
Protocol: as §3, §4

[11] = target: T5, human IL-13Rα2 Fc (R & D Systems, …); test: as above
Protocol: as §3, §4

Row | IC50 [1] [nM] | IC50 [2] [nM] | IC50 [3] [nM] | Kd [4] [nM] | koff [4] [s⁻¹] | kon [4] [M⁻¹ s⁻¹] | Kd [5] [nM] | koff [5] [s⁻¹] | kon [5] [M⁻¹ s⁻¹] | Kd [6] | Kd [7] | binding result [8] | binding result [9] | binding result [10] | binding result [11] | Binder
1 | 0.673 | 0.673 | 0.673 |  |  |  |  |  |  |  |  |  |  |  |  | B1
2 |  |  |  | 0.504 | 0.000346 | 688000 | 4.41 | 0.00108 | 244000 | 0.533 nM and 0.531 nM and 0.459 nM | 4.67 nM and 4.34 nM and 4.41 nM | no binding | no binding | no binding | no binding | Antibody 37GL IgG (antibody, V domains shown, germlined IgG; also called Antibody 37 (FGL)) VH: QVQLVQSGAEVKKPGASVKVSCKASGYAFTSYYMHWVRQAPGQGLEWMGIINPRGGSTSYAQKFQGRVTMTRDTSTSTVYMELSSLRSEDTAVYYCARGKYWMYDWGKGTLVTVSS VL: QSVLTQPPSVSAAPGQKVTISCSGGGSSIGNSYVSWYQQLPGTAPKLLIYDNNKRPSGIPDRFSGSKSGTSATLGITGLQTGDEADYYCGTWDTSPVWEWPFGTGTKLTVL
